Experimental data from US20140105855A1.

Target: preformed IL-17RA-IL-17A complex (IL-17A captured by immobilised IL-17RA) (human) (UniProt Q16552)
Experiment: SPR, second receptor injected over IL-17A captured on immobilised IL-17RA

Sequence of preformed IL-17RA-IL-17A complex (IL-17A captured by immobilised IL-17RA) (human) (Q16552 other isoform, or with tags, fused parts or gaps): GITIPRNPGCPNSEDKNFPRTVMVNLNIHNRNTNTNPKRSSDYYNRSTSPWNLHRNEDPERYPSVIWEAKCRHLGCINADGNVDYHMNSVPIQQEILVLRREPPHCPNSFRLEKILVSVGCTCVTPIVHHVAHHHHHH

Substance: IL-17RA extracellular domain (ECD) (receptor)
- Kd: 3.1 µM
